Measurements from the nanobody polyreactivity screen of Harvey et al. (2022).

Assay: yeast display, Sf9 membrane polyspecificity reagent, FACS + sequencing; frameworks hold sequencing errors
Outline: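 Polyreactivity labels are assigned by the sorting gate from which each nanobody was recovered. The gates were low and high (top ~1%), set on anti-HA fluorescence for expression and streptavidin fluorescence for reagent binding. Before sorting, galactose-induced (36–48 hours) yeast display cells were stained for 1 hour at 4 °C with 10% biotinylated, detergent-solubilized Sf9 membrane reagent.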

| Sequence | polyreactivity (PSR sort gate) |
| --- | --- |
| QVQLVESGGGLVQAGGSLRLSCAASGRIFGCYSMGWYRPAPGKEREEVAAITWSGTSTYYADSVKGRFTISRENAKNTVYLQMNSLQPEDTAVYYCAADSLSGSAPTYYSTLEYWGQGTQVTVSS | low polyreactivity |
| QVQLVESGGGLVQAGGSLRLSCAASGSIFLYYVMGWYRQAPGKERELVAAITWDGGSTYYADSVKGRFTISRDNAKNTVYLQMNSLKPEDTAVYYCNKDTTYSYYTEPYDYWGQGTQVTVSS | low polyreactivity |
| QVQLVESGGGLVQAGGSLRLSCAASGSTFSTYAMGWYRQAPGTERELVAASRWSGGSTYYADSVKGRFTISRDNAKNTVYLQMNSLKPEDTAVYYCAKGIRRWYGGSDYWGQGTQVTVSS | low polyreactivity |
| QVQLVESGGGLLQAGGSLRLSCAASGSIFTSNAMGWYRQAPGKERELVAAITRGGNTNYADSVKGRFTISRDNAKNTVYLQMNSLKPEDTAVYYCATEGFVYSWLWEFEYWGQGTQVTVSS | low polyreactivity |
| QVQRVESAGGLVQAGGSLRLSCAASGFILDNYAMGWYRQAPGKERELVAAISGSGGSTYYADSVKGRFTISRDNAKNTVYLQMNSLKPEDTAVYYCNRDRLLRQYDYWGQGTQVTVSS | high polyreactivity |
| QVQLVESGGGLVQAGGSLRLSCAASGFYGNAMGWYRQAPGKERELVAAITWSGGSTYYADSVKGRFTISRDNAKNTVYLQMNSLKPEDTAVYYCNKLQHRKYNGYDYWGQGTQVTVSS | high polyreactivity |
| QVQLVESGGGLVQAGGSLRLSCAASGLIFVAYAMGWYRQAPGKERELVAAISRNGGSTYYADSVKGRFTISRDNAKNTVYLQMNSLKPEDTAVYYCAARYAYYTARYTQVKGLDYWGQGTLVTVSS | high polyreactivity |
| QVQLVESGGGLVQAGGSLRLSCAASGSSFNYNTMGWYRQAPGKERELVADISWSGGSTYYADSVKGRFTISRDNAKNTVYLQMNSLKPEDTAVYYCAADFGLFPYVGTGYYYWGQGTQVTVSS | low polyreactivity |
| QVHLVESGGGLDQAGGSLRLRCAASGRIFRHYAMGWYRQAPGTERELVAAYRWSCGSTYYADSEKGRFTISRDNAKNTVYLQMNSLKPEDNAVYYCATRDAVGHRPSGPYQLYDYWGQGTQVTVSS | low polyreactivity |
| QVQLVESGGGLVQAGGSLRLSCAAYGSIFSFYVMGWNRQAPGKERELVARINWSSTSTYYADSVKGRFTISRDNAKNTVYLQMNSLKPEDTAVYYCAAGRRVYPGYYYWGQGTQVTVSS | high polyreactivity |
| QVQLVESGGGLVQAGGSLRLSCAASGSIFWVYVMGWYRQAPGKEREFVAAISSSGGRTYYADSVKGRFTISRDNAKNTVYLQMNRLKPEDTAVYYCAARRYWWYSASAMDYWGQGTQVTVSS | high polyreactivity |
| QVQLEESGGGLVQAGGSLRLSCAASGSIFYPYAMGWYRQAPGKERELVAAISGRGGNTYYADSVKGRFTISRDIAKNTVYLQMNSLKPEDSAVYDCAADRYYWSLYGYDYWGQGTQVTVSA | high polyreactivity |
| QVHLVESGGGLVQAGGSLRLSCAASASIFRYYAMGRYRQAPGKERELVATISSGGRTYYADSVKGRFTISRDNAKNTVYLQMNSLKPEDPAVYYCAAVRLTWTAKYNYWGQGTQVTVSS | high polyreactivity |
| QVQLVESGGGLVQAGGSLRLSCAASGSIFVTYAMGWYRQAPGKERELVAAINYSGGSTYYADSVKGRFTISRDNAKNTVYLQMNSVKPEDTAVYYCAATTRYYSYGYWGQGTQVTVSS | low polyreactivity |
| QVQLVESAGGLVQAGGCLRLSCAACGSIFLYNAMGWYRQAPVKERELVAGITGGGGTNYADSVKGRFTISRDNAKNTVYLQMNSLKPEDTAVYYCAADPSGQFPYSYYNYDYDYWGQGTQVTVSS | low polyreactivity |
| HVQLVESGGGLVQAGGSLRLSCAASGGIFVYYAMGWYRQAPGKVRELVAAISRSAASTYYADSVKGRFTISRDNAKNTVYLQMNSLKPEDTADYYCAAGQLTDKGGGDSWGQGTQVTVSS | low polyreactivity |
| QVQLVESGGGLVQAGGSLRLSCAASGMIFQDNAMGWYSQAPGKERELVAAITTGGITYYADSVKGRFTISRDNAKNTVYLQMNSLKPEDTAVYYCATDPVKSGYQRYYYWGQGTQVTVSS | low polyreactivity |
| QVQLVESGGGLVQAGGSLRLSCAASVFLPYTMGWYRQAPGKERELVAAITRGGSTYYADSVKGRFTISRDNAKNTVYLQMNSLKPEDTAVYYCAKRSTFAWRGYDYWGQGTQVTVSS | high polyreactivity |
| QVQLVESGGGLVQAGGSLRLSCAASGSIFNPYVMGWYRQAPGKERELVAAISSSGGRTYYADSVKGRFTISRDNAKNTVYLQMNSLKPEDTAVYYCAAIPRQGYDYWGQGTQVTVSS | high polyreactivity |
| QVQLVESGGGVVQAGGSLRLSCAASGLIFSPYAMGWYRPAPGKERELVAVITRSGGRTYYADSVKGRFTISRDNAKNTVYLQMNSLKPEDTAVYYCAATPKSWSSSTRDYWGQGTQVTVSS | high polyreactivity |
| QVQLVESGGGLVQAGGSLRLSCAASGITFKYAMGWYRQAPGKERELVAAISGGGRTNYADSVKGRFTISRDNAKNTVYLQMNSLKPEDTAVYYCAAQGSRWWGFDYWGQGTQVTVSS | high polyreactivity |
| QVQLVESGGGLVQAGGSLRLSCAASGSTFPTNAMGWYRQAPGKEREFVADITIRGGGTAYADSVKGRFTISRDNAKNTVYLQMTSLKPEDTAVYYCARSKSTELKRLLYDSWGQGTQVTVST | low polyreactivity |

| Sequence | polyreactivity (PSR sort gate) |
| --- | --- |
| QVQLVESGGGLVQAGGSLRLSCAASGRTFGGYTMGWYRQAPGKEREFVAAITWSTGGSTYYADSVKGRFTISRDNAKNTVYLQMNSLKPEDTAVYYCAKDLYLHTYYAYPYRFGSGYYWGLGTQVTVSS | low polyreactivity |
| QVQLVESGGGLVQAGGSLRLSCASSGSIFYGYAMGWYRQAPGKERELVAAINNSGVSTYYADSVQGRFTISRDNAKNTVYLQMNSLKPEDTAVYYCNKAGAYPYHYDYWGQGTQGTVSS | low polyreactivity |
| QVQLVESGGGLVQAGGSLRLSCAASGFIFSYYAMGWYRQAPGKERELVAAISRNGGRTYYADSVKGRFTISRDNAKNTVYLQMNSLIPEDTAVYYCAATTYRTSSYIRYGSPKHDDYWGQGTHVTVSS | high polyreactivity |
| QVQLVESGGGLVQAGGSLRLSCAASGRTFHYYAMGWYRQAPGKERELVAAITRGGNTYYADSVKGRFTISRDNAKNTVYLQMNSLKPEDTAVYYCAKDNHFEAYRYDYWGQGTQVTVSS | low polyreactivity |
| QVQLVETGGGLVQAGGSLRLSFGASGSTFSQYGMGLYRQAPGKVRELVAAIRRSGGRTYYADSVKGRFTISLDNAKNTVYLQMNSLKPEDTAVYYCAADEYRYYFYRPGIGYDYWGQGTQVTVSS | low polyreactivity |
| QVQLVESGGGLVQAGGSLRLSCAASGYTFVIYAMGSYRQAPGKERELVAAITTIGGRTYYADSVKGRFTISRDNAKNTVYLQMNSLKPEDTAVYYCAADIRSNRLYDGGYWGQGTQVTVSS | low polyreactivity |
| QVQLVESGGGLVQAGGSLRLSCAASGSTSVQYAMGWYRQAPGKERELVAAIDRSGGSTSYADSVKGRFTISRDNAKNTVYLQMNSLKPEDTAVYYCNADPVRSTYSYDYWGQGTQVTVSS | low polyreactivity |
| QVQLVESGGGLVQAGGSLRLSCAASGRIFKYYAMGWYRQAPGKERELVAAISRSGGSTYYADSVKGRFSISRDNAKNTVYLQMNSLKPEDTAVYYCAAGYKQATYDRIRTAYGYWGQGTQVTVSS | high polyreactivity |
| QFQLVESGGGLVQAGGSLRLSCAASGLIFTANAMGWYRQAPGKERELVASITWSGDSTYYADSVKGRFTISRDNAKNTVYLQMNSLKPEDSAVYYCNARPVYTYVTYDGNYWGQGTQVTVSS | low polyreactivity |
| QVLLQESGGGLVQAGGSLRLSCAASGSIFLFYTMGWYRQAPVKEREFVAGITLGTTTYNADSVKGRFTISRDNVKNTVYLQMNSLKPEDTAVYYCAVAVGHYTEFWYWGQGTQVTMSS | high polyreactivity |
| QVQLVESGGGLVQAGGSLRLSCAASGLIFGSYAMGWYRQAPGKERELVAAINKSGGSTYYADSVKGRFTISRDNAKNTVYLQMNSLKPEDTAVYYCAKGRSKYYQPGQRDYWGQGTQVTVSS | high polyreactivity |
| QVQLLESGGGIVQAGGILRLSCAASGITIGWYAMGWYRPAPGKERELVASISSSGSTNYADSVKGLFTISRDNAKNTFYLQMNSMKPEDTAVYYCNKDYLLRHYYIYVIEGDYWGQGTQVTVSS | low polyreactivity |
| QVQLVESGGGLVQAGGSLRLSCAASGRIFDYNAMGWYRQAPAKERELVAAITWSGGSTHYADSVKGRFTISRDNAKNTVYLQMKSLKPEDTAVYYCAADIGGDYLVFYYRGGYDYWGQGNQVTVSS | low polyreactivity |
| QVQLVESGGGLVQAGGSLRLSCAASGITFGYYDMGWYRQAPGKERELVASISSGGNTNYADSVKGRFTISRDNAKNTVYLQMNSLKPEDTAVYYCNVRYWGFYDYDYWGQGTQVTVSS | low polyreactivity |
| QVQLVESGGGLVQAGGSLRLSCAASGRTFSGYAKGGYRQAPGKERELVAAITSSGSSTYYADSVKGRFTISRDNAKNTVYLQMNSLKPEDTAVYYCAATPQAHSERYYYQRKYDYWGQGTQVTVSS | low polyreactivity |
| QVQLVEAGRGLVHAGCSLRLSCASSGNIFANYSMGWYRQAPGKERELVAAIRWSASRTYYADSVKGRFTISRDNAMNTVYLQMNSLKPEDTAVYYCAATIDTLWDYYYDYWGQGSQVTVSS | high polyreactivity |
| QVQLVESGGGLVQAGGSLRLSCAASGSIFGGNAMGWYRQAPGKERELVAAITTGDGSTYYADSVKGRFTISRDNAKNTVYLQMNSLKPEDTAVYYCAADIVHDRFDYWGQGTQVTVSS | low polyreactivity |
| QVQLVESGGGLVQAGGSLRLSCAASGFTLSYYAMGWYRQAPGKERELVAAMTWSDTSTYYADSVKGRFTISRDKAKNTVYVQMNSLKPEDTAVYYCAAEDEWVTWGWGYYYWGQGTQVTVSS | high polyreactivity |
| QVQLVESGGGLVQAGGSLRLSCAASGRTFLGYAMGWSRQAPGKERELVAAISTGGGRTYYADSVKGRFTISRDNAKNTVYLQMNSLKPEDTAVYYCATVPRHGAPTTFNYWGQGTQVTVSS | high polyreactivity |
| QVQLVESGGGLVQAGGSLRLSCAASGRTFCYYTMVWYRQAPGKEREMVASISRVTSTYYADSVKGRFTISRDNAKNTVDLQMNSVKPEDTAVYYCAADRTRYYVGYRWTGNKMVYWGQGTQVTLSS | low polyreactivity |
| QVQLVESGGGLVQAGGSLRLSCAASGRIFGKYAMGWYRQAPGKERELVATISLSGVRTYYADSVKGRFTISRDNAKNTVYLQMNSLKPEDTAVYYCASCYSSNGDYWGQGTQVTVSS | low polyreactivity |
